The values that follow come from patent US20140120555A1 (PIERRE FABRE MEDICAMENT, published 2014).

For experiment [1], the target named is T1, chimeric antibody c515H7.
T1 construct: Human IgG1/kappa constant domains; also called c515H7 Mab; chimeric 515H7
Briefly: SPR (Biacore X): m-FcγRIII injected over c515H7 Mab immobilized on a CM4 sensorchip; Langmuir model. Here is the method: (§1) 2017 RU of c515H7 Mab were immobilized using the amine coupling kit chemistry on the second flowcell (FC2) of a CM4 sensorchip. The first flowcell (FC1) activated by NHS and EDC mixture and des-activated by ethanolamine served as the reference surface to check and subtract the non specific interaction between the analyte (Fc gamma receptors) and the sensorchip matrix.
(§2) The kinetic experiments were carried out at 25° Celsius at a flow rate of 30 μl/min. The HBS-EP buffer was used either as the running buffer or for the preparation of analyte solutions. The analyte solutions were injected during 90 seconds (association phase) with a 90 seconds delay (dissociation phase). An injection of running buffer as analyte was used as a double reference. All the sensorgrams were corrected by this double reference sensorgram.
(§3) After each injection of the analyte, the sensorchip was regenerated by injection of 20 mM NaOH, 75 mM NaCl solution.

Experiment [2] addresses T2, humanized antibody Hz515H7 VH1 D76N VL2.
T2 construct: IgG1/kappa; also called hz515H7VL2; hz515H7-1
Briefly: SPR (Biacore X): m-FcγRIII injected over hz515H7VH1D76NVL2 Mab immobilized on a CM4 sensorchip; Langmuir model. How it is done: (§4) 1964 RU of hz515H7VH1D76NVL2 Mab were immobilized using the amine coupling kit chemistry on the second flowcell (FC2) of a CM4 sensorchip. The first flowcell (FC1) activated by NHS and EDC mixture and des-activated by ethanolamine served as the reference surface to check and subtract the non specific interaction between the analyte (Fc gamma receptors) and the sensorchip matrix.
as §2
Using the Langmuïr model the constant of dissociation was around 17 and 18 nM.

Experiment [3] addresses T1, chimeric antibody c515H7. Briefly: SPR (Biacore X): m-FcγRIII injected over c515H7 Mab immobilized on a CM4 sensorchip; heterogeneous ligand model, minor component (1%). How it is done:
as §1, §2, §3

Experiment [4] deals with T1, chimeric antibody c515H7. Briefly: SPR (Biacore X): m-FcγRIII injected over c515H7 Mab immobilized on a CM4 sensorchip; heterogeneous ligand model, major component (99%). How it is done:
as §1, §2, §3

In experiment [5] the target is T2, humanized antibody Hz515H7 VH1 D76N VL2. Briefly: SPR (Biacore X): m-FcγRIII injected over hz515H7VH1D76NVL2 Mab immobilized on a CM4 sensorchip; heterogeneous ligand model, major component (66%).
Experiment [6] shares this target. Briefly: SPR (Biacore X): m-FcγRIII injected over hz515H7VH1D76NVL2 Mab immobilized on a CM4 sensorchip; heterogeneous ligand model, minor component (34%).
Experiment [7] concerns the target T1, chimeric antibody c515H7. Briefly: SPR (Biacore X): m-FcγRI injected over c515H7 Mab immobilized on a CM4 sensorchip; Langmuir model. How it is done:
as §1, §2, §3

Experiment [8] concerns the target T2, humanized antibody Hz515H7 VH1 D76N VL2. Briefly: SPR (Biacore X): m-FcγRI injected over hz515H7VH1D76NVL2 Mab immobilized on a CM4 sensorchip; Langmuir model. How it is done: as §4, §2
(§5) After each injection of the analyte, the sensorchip was regenerated by injection of either 20 mM NaOH solution after h-FcγRI and m-FcγRIII or 10 mM NaOH after h-FcγRIIIA and m-FcγRI.

Experiment [9] concerns the target T1, chimeric antibody c515H7. Briefly: SPR (Biacore X): m-FcγRI injected over c515H7 Mab immobilized on a CM4 sensorchip; heterogeneous ligand model, major component (81%). How it is done:
as §1, §2, §3

Experiment [10] concerns the target T1, chimeric antibody c515H7. Briefly: SPR (Biacore X): m-FcγRI injected over c515H7 Mab immobilized on a CM4 sensorchip; heterogeneous ligand model, minor component (19%). How it is done: as §1, §2, §3
In experiment [11] the target is T2, humanized antibody Hz515H7 VH1 D76N VL2. Briefly: SPR (Biacore X): m-FcγRI injected over hz515H7VH1D76NVL2 Mab immobilized on a CM4 sensorchip; heterogeneous ligand model, major component (82%). Here is the method: as §4, §2, §5
Experiment [12] shares this target. Briefly: SPR (Biacore X): m-FcγRI injected over hz515H7VH1D76NVL2 Mab immobilized on a CM4 sensorchip; heterogeneous ligand model, minor component (18%). Here is the method: as §4, §2, §5
In experiment [13] the target is T1, chimeric antibody c515H7. Briefly: SPR (Biacore X): h-FcγRI injected over c515H7 Mab immobilized on a CM4 sensorchip; Langmuir model. How it is done:
as §1, §2, §3

The target of experiment [14] is T2, humanized antibody Hz515H7 VH1 D76N VL2. Briefly: SPR (Biacore X): h-FcγRI injected over hz515H7VH1D76NVL2 Mab immobilized on a CM4 sensorchip; Langmuir model. How it is done: (§6) The experiments were carried out using a Biacore X device. The soluble forms of the four Fc […]gamma receptors used in this study were purchased from R&D Systems: […]
Experiment [15] deals with T1, chimeric antibody c515H7. Briefly: SPR (Biacore X): h-FcγRI injected over c515H7 Mab immobilized on a CM4 sensorchip; heterogeneous ligand model, minor component (0%). How it is done: as §1, §2, §3
The target in experiment [16] is T1, chimeric antibody c515H7. Briefly: SPR (Biacore X): h-FcγRI injected over c515H7 Mab immobilized on a CM4 sensorchip; heterogeneous ligand model, major component (100%). How it is done: as §1, §2, §3
For experiment [17], the target named is T2, humanized antibody Hz515H7 VH1 D76N VL2. Briefly: SPR (Biacore X): h-FcγRI injected over hz515H7VH1D76NVL2 Mab immobilized on a CM4 sensorchip; heterogeneous ligand model, minor component (1%). Here is the method:
as §6

The target is the same in experiment [18]. Briefly: SPR (Biacore X): h-FcγRI injected over hz515H7VH1D76NVL2 Mab immobilized on a CM4 sensorchip; heterogeneous ligand model, major component (99%). Here is the method:
as §6

T1 sequence (heavy, as listed by the source, chain 1 of 2): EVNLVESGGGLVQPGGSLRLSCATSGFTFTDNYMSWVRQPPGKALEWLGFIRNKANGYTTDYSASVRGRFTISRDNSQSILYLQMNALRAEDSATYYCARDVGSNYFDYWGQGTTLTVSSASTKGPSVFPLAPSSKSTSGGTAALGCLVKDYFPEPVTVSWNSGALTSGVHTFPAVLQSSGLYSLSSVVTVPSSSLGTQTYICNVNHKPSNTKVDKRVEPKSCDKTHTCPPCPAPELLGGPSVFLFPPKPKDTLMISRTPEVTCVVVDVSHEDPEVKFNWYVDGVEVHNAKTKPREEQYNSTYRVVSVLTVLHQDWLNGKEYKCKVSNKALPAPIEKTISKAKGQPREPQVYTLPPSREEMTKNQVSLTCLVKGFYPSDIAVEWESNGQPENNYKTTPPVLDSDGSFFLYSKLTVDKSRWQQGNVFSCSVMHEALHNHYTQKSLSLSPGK
T1 sequence (light, as listed by the source, chain 2 of 2): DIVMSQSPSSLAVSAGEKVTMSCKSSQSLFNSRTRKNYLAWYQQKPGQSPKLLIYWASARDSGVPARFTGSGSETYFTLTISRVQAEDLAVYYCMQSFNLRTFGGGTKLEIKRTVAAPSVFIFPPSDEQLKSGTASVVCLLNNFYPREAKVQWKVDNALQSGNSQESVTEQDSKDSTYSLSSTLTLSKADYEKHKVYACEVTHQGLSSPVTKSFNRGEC
T2 sequence (heavy, as listed by the source, chain 1 of 2): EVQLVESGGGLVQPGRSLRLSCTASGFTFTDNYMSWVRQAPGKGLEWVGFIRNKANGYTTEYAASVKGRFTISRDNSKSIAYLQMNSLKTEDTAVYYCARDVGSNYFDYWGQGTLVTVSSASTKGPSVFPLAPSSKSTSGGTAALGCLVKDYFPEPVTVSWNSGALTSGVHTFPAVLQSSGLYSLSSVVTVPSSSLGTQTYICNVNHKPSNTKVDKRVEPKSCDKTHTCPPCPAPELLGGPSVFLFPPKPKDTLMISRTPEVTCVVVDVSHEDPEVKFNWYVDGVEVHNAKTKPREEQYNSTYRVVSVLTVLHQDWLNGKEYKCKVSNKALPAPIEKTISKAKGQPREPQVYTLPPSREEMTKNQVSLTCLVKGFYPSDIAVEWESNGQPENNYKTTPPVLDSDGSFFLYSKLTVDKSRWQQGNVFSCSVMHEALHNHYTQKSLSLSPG
T2 sequence (light, as listed by the source, chain 2 of 2): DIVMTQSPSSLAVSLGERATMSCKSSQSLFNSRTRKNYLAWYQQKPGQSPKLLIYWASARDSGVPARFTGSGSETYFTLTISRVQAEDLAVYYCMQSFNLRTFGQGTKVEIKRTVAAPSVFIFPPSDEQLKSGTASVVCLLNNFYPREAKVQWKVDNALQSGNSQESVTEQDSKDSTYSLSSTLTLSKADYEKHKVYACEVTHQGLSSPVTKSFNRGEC

B1: Recombinant mouse FcγRIII [CD16], Ala31-Thr215 with C-terminal 10-His tag (receptor)
chain: ALPKAVVKLDPPWIQVLKEDMVTLMCEGTHNPGNSSTQWFHNGRSIRSQVQASYTFKATVNDSGEYRCQMEQTRLSDPVDLGVISDWLLLQTPQRVFLEGETITLRCHSWRNKLLNRISFFHNEKSVRYHHYKSNFSIPKANHSHSGDYYCKGSLGSTQHQSKPVTITVQDPATTSSISLVWYHTHHHHHHHHHH
notes: Soluble form bought from R&D Systems; also called m-FcγRIII
As for B1, the t1/2 in the experiment with chimeric antibody c515H7 [1] turned out to be 2.61 min; in [2], 3.17 min; in the experiment with chimeric antibody c515H7 [3], 4.85 min; in the experiment with chimeric antibody c515H7 [4], 2.59 min; in experiment [5] it was 313 min; in experiment [6], 0.39 min.

B2: Recombinant mouse FcγRI [CD64], Gln25-Pro297 with C-terminal 6-His tag (receptor)
chain: EVVNATKAVITLQPPWVSIFQKENVTLWCEGPHLPGDSSTQWFINGTAVQISTPSYSIPEASFQDSGEYRCQIGSSMPSDPVQLQIHNDWLLLQASRRVLTEGEPLALRCHGWKNKLVYNVVFYRNGKSFQFSSDSEVAILKTNLSHSGIYHCSGTGRHRYTSAGVSITVKELFTTPVLRASVSSPFPEGSLVTLNCETNLLLQRPGLQLHFSFYVGSKILEYRNTSSEYHIARAEREDAGFYWCEVATEDSSVLKRSPELELQVLGPQSSAPHHHHHH
notes: range 25-297; Soluble form bought from R&D Systems; also called m-FcγRI
Turning to B2, the t1/2 with chimeric antibody c515H7 [7] worked out at 0.17 min; in [8], 0.18 min; in the experiment with chimeric antibody c515H7 [9], 0.08 min; with chimeric antibody c515H7 [10] it was 0.3 min; in [11], 0.11 min; in experiment [12] it was 0.53 min.

B3: Recombinant human FcγRI [CD64], Gln16-Pro288 with C-terminal 6-His tag (receptor)
chain: QVDTTKAVITLQPPWVSVFQEETVTLHCEVLHLPGSSSTQWFLNGTATQTSTPSYRITSASVNDSGEYRCQRGLSGRSDPIQLEIHRGWLLLQVSSRVFTEGEPLALRCHAWKDKLVYNVLYYRNGKAFKFFHWNSNLTILKTNISHNGTYHCSGMGKHRYTSAGISVTVKELFPAPVLNASVTSPLLEGNLVTLSCETKLLLQRPGLQLYFSFYMGSKTLRGRNTSSEYQILTARREDSGLYWCEAATEDGNVLKRSPELELQVLGLQLPTPHHHHHH
notes: range 16-288; Soluble form bought from R&D Systems; also called h-FcγRI
As for B3, the t1/2 is 19.3 min with chimeric antibody c515H7 [13]; 21.4 min in [14]; 158 min with chimeric antibody c515H7 [15]; 19.3 min with chimeric antibody c515H7 [16]; 578 min in experiment [17]; 28.9 min in [18].
